Experimental data reported in publication PMC6464389 (Circulation, 2019).

Biological target: recombinant GPIbα extracellular domain (UniProt P07359 17-531)
Experiment: SPR

B1: recombinant wild-type protein disulfide isomerase (wtPDI) (enzyme)
chain: not shown
B1 gave a Kd of 900 nM.
